# According to IntAct's records for PubMed 17525332:
# B1: Zinc finger CCHC domain-containing protein 8 (Homo sapiens), Q6NZY4 (parent)
# chain: MAAEVYFGDLELFEPFDHPEESIPKPVHTRFKDDDGDEEDENGVGDAELRERLRQCEETIEQLRAENQELKRKLNILTRPSGILVNDTKLDGPILQILFMNNAISKQYHQEIEEFVSNLVKRFEEQQKNDVEKTSFNLLPQPSSIVLEEDHKVEESCAIKNNKEAFSVVGSVLYFTNFCLDKLGQPLLNENPQLSEGWEIPKYHQVFSHIVSLEGQEIQVKAKRPKPHCFNCGSEEHQMKDCPMPRNAARISEKRKEYMDACGEANNQNFQQRYHAEEVEERFGRFKPGVISEELQDALGVTDKSLPPFIYRMRQLGYPPGWLKEAELENSGLALYDGKDGTDGETEVGEIQQNKSVTYDLSKLVNYPGFNISTPRGIPDEWRIFGSIPMQACQQKDVFANYLTSNFQAPGVKSGNKRSSSHSSPGSPKKQKNESNSAGSPADMELDSDMEVPHGSQSSESFQFQPPLPPDTPPLPRGTPPPVFTPPLPKGTPPLTPSDSPQTRTASGAVDEDALTLEELEEQQRRIWAALEQAESVNSDSDVPVDTPLTGNSVASSPCPNELDLPVPEGKTSEKQTLDEPEVPEIFTKKSEAGHASSPDSEVTSLCQKEKAELAPVNTEGALLDNGSVVPNCDISNGGSQKLFPADTSPSTATKIHSPIPDMSKFATGITPFEFENMAESTGMYLRIRSLLKNSPRNQQKNKKASE
# B2: Origin recognition complex subunit 3 (Homo sapiens), Q9UBD5 (parent)
# chain: MATSSMSKGCFVFKPNSKKRKISLPIEDYFNKGKNEPEDSKLRFETYQLIWQQMKSENERLQEELNKNLFDNLIEFLQKSHSGFQKNSRDLGGQIKLREIPTAALVLGVNVTDHDLTFGSLTEALQNNVTPYVVSLQAKDCPDMKHFLQKLISQLMDCCVDIKSKEEESVHVTQRKTHYSMDSLSSWYMTVTQKTDPKMLSKKRTTSSQWQSPPVVVILKDMESFATKVLQDFIIISSQHLHEFPLILIFGIATSPIIIHRLLPHAVSSLLCIELFQSLSCKEHLTTVLDKLLLTTQFPFKINEKVLQVLTNIFLYHDFSVQNFIKGLQLSLLEHFYSQPLSVLCCNLPEAKRRINFLSNNQCENIRRLPSFRRYVEKQASEKQVALLTNERYLKEETQLLLENLHVYHMNYFLVLRCLHKFTSSLPKYPLGRQIRELYCTCLEKNIWDSEEYASVLQLLRMLAKDELMTILEKCFKVFKSYCENHLGSTAKRIEEFLAQFQSLDETKEEEDASGSQPKGLQKTDLYHLQKSLLEMKELRRSKKQTKFEVLRENVVNFIDCLVREYLLPPETQPLHEVVYFSAAHALREHLNAAPRIALHTALNNPYYYLKNEALKSEEGCIPNIAPDICIAYKLHLECSRLINLVDWSEAFATVVTAAEKMDANSATSEEMNEIIHARFIRAVSELELLGFIKPTKQKTDHVARLTWGGC
# B3: DNA replication complex GINS protein PSF2 (Homo sapiens), Q9Y248 (parent)
# chain: MDAAEVEFLAEKELVTIIPNFSLDKIYLIGGDLGPFNPGLPVEVPLWLAINLKQRQKCRLLPPEWMDVEKLEKMRDHERKEETFTPMPSPYYMELTKLLLNHASDNIPKADEIRTLVKDMWDTRIAKLRVSADSFVRQQEAHAKLDNLTLMEINTSGTFLTQALNHMYKLRTNLQPLESTQSQDF
# Variants of: B1
# Settings: with brca1_human BRCA1, P38398
row,effect of a mutation on the interaction,Variant
1,disrupting interaction,S456A

# Variants of: B2
# Settings: with brca1_human BRCA1, P38398
# Target sequence in this assay (P38398 whole entry, looked up): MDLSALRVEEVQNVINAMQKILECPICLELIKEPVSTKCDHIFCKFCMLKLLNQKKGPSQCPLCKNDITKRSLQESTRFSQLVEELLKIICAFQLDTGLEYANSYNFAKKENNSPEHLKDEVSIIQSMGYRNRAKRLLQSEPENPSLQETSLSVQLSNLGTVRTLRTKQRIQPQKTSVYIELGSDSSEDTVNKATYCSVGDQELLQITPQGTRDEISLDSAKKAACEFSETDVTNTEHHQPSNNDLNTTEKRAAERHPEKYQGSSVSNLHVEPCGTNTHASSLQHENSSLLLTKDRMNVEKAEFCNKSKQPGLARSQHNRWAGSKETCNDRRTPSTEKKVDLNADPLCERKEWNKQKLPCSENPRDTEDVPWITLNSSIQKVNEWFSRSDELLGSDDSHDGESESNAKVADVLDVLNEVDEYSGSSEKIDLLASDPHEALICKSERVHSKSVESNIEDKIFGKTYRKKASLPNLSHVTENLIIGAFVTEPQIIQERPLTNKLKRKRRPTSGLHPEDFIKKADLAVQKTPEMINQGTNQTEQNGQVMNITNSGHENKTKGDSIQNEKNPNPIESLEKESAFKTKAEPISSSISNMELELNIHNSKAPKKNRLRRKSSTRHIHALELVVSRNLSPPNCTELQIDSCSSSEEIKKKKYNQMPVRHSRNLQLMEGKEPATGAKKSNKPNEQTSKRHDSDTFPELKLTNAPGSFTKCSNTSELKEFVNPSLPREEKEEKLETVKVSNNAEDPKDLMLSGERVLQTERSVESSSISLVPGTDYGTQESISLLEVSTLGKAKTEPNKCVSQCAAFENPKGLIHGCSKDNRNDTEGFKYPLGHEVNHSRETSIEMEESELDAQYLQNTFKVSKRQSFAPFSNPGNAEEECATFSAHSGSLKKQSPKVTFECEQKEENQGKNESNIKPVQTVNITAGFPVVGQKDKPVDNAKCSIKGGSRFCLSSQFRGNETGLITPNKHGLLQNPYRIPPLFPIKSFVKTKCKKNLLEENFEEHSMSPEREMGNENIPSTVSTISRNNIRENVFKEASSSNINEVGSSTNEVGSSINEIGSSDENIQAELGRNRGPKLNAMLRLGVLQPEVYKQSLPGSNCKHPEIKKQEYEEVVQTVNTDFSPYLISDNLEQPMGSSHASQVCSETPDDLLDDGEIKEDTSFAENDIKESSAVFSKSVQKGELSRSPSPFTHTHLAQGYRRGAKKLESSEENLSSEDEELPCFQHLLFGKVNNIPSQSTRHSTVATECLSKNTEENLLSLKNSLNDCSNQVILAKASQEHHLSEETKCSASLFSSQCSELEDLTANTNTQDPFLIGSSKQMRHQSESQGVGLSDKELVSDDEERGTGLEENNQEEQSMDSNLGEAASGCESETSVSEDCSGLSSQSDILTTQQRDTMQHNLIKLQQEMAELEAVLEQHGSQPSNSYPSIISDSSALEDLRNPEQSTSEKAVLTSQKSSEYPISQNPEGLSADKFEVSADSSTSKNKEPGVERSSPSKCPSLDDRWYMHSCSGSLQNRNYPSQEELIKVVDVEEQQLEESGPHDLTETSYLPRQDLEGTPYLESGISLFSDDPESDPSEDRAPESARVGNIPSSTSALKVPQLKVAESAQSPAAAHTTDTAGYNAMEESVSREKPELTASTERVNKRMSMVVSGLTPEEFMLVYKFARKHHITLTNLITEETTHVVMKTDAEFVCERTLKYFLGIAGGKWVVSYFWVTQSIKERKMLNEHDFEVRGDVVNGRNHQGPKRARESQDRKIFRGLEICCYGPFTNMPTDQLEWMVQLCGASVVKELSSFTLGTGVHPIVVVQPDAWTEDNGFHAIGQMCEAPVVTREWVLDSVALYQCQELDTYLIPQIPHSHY
row,effect of a mutation on the interaction,Variant
1,disrupting interaction,S516A

# Variants of: B3
# Settings: with chk2_human CHEK2, O96017
# Chain of chk2_human CHEK2, O96017 (O96017 whole entry): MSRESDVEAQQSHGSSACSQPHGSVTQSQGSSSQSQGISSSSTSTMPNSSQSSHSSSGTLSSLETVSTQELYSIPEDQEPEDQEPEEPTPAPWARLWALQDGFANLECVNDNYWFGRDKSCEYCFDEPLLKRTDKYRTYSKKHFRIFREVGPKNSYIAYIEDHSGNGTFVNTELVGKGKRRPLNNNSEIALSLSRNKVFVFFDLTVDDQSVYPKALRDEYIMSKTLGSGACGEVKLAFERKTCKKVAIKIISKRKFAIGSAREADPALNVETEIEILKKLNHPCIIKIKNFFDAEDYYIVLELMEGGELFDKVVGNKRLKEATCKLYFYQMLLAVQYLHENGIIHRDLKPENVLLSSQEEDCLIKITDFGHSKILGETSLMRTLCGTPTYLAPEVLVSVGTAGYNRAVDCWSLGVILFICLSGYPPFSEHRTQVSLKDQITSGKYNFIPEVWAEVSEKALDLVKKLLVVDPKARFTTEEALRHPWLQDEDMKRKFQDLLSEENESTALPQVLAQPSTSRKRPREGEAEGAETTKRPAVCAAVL
row,effect of a mutation on the interaction,Variant
1,disrupting interaction,MDAAEVEFLAEKELVTIIPNFSLDKIYLIGGDLGPFNPGLPVEVPLWLAINLKQRQKCRLLPPEWMDVEKLEKMRDHERKEETFTPMPSPYYMELTKLLLNHASDNIPKADEIRTLVKDMWDTRIAKLRVSADSFVRQQEAHAKLDNLTLMEINTSGTFLTQALNHMYKLRTNLQPLESAQAQDF [T180A;S182A]
